Kd data for one molecule are collected here from article PMC2744139 (Nature structural & molecular biology, 2009).

Usually Kd stands for the concentration at which binding is half-saturated. Low readings indicate higher affinity, high ones lower affinity.

This assay deals with T1, Cdc13 full-length (FL) (S. cerevisiae, UniProt P32797 1-924).
T1 sequence: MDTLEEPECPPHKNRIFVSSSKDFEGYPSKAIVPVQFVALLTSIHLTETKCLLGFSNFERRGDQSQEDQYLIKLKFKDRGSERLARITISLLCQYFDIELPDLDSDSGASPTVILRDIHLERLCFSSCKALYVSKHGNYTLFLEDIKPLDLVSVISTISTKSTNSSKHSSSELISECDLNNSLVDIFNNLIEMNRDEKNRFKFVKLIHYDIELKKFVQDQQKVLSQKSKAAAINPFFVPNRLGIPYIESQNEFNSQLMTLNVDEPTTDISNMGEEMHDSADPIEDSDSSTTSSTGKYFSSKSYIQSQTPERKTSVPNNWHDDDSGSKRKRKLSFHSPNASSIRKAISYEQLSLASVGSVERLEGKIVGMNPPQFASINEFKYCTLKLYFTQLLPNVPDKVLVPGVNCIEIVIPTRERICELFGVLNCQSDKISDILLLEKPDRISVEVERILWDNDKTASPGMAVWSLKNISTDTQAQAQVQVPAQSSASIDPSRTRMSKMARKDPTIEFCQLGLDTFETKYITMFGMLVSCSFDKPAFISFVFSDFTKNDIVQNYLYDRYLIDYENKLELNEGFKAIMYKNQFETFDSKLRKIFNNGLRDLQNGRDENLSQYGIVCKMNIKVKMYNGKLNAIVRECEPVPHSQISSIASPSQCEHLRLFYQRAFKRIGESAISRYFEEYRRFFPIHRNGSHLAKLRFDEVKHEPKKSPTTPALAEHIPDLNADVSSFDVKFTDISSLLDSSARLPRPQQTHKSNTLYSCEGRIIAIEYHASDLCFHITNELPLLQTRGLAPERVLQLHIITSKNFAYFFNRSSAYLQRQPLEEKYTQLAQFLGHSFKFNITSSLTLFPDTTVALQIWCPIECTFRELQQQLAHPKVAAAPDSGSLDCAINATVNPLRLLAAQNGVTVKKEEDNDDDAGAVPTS
Kind of assay: fluorescence polarisation. On the technique in general: Polarisation of emitted light reports the rotation of a fluorescent probe.

B1: Hsp82 (yeast Hsp90 molecular chaperone) (natural protein)
chain: not shown
The molecule B1 showed a Kd of about 325 nM.
